The values below come from the supplement of paper PMC12042874.

± gives the uncertainty stated by the source.

The data set can be described thus: amyloid nucleation score (Sup35N fusion, yeast selection) (log enrichment); library NNK1; higher = more nucleation; inactive = no reads after selection. Put shortly: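 The nucleation score, computed with DiMSum, is the log enrichment of output over input reads, centred on the mode score of non-aggregating sequences. Sequences with under 100 input reads were dropped. Reads were generated by Illumina sequencing of plasmid inserts from psi-negative yeast with Sup35N fused to peptides of 20 random codons, induced with 100 μM copper sulfate for 24 hours and grown 7 days at 30°C on medium lacking adenine and uracil.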
ILAWAMGI displayed an amyloid nucleation score of 0.777 ± 0.78.
The figure for VSVFNAQFIDRRGCR is 5.16 ± 0.063; for DRFQNYFCILCFPFYANVCE it is 2.71 ± 0.12; for VNASELEYKFTLLVQWMIRR it is 1.31 ± 0.32.
The result for LCFMLEKWHLF reads -0.566 ± 1.1; that for LLYISSTVM, 1.07 ± 0.38.
The figure for LGVPRVISCSCHLSVRNSAK is 0.413 ± 0.9; for NISSNRCVNNVAPSDSSTYF it is -0.091 ± 0.69; for FCNRFRCSGSVRWLREVEYM it is 0.291 ± 0.46.
The substance SSRNRV had an amyloid nucleation score of -1.07 ± 0.59.
The result for GDVLVSTNHIGFFKGPG reads 1.91 ± 0.27; that for VGFRVDFNIDLQLFLYRNEK, 0.334 ± 0.81; that for RMLCYEFCCLNLDVGIYCAS, “inactive”.
The result for FAKLYLKSISVLLMHTDWVF reads 0.684 ± 0.62; that for KCSFNLTLIVF, 1.77 ± 0.15.
The result for SKYIGVVSPTWLH reads 0.428 ± 1.2; that for AWAVGFYPFCRMFRSLYNYW, 0.387 ± 0.98.
HIGYCQSVSTFSR: the amyloid nucleation score amounted to 10.2 ± 0.046.
The result for SCHVTFKVFFLFAGPCREVL reads 1.98 ± 0.27; that for EVVKSITRKPNLVWRYLTLD, 0.588 ± 0.44; that for PSLYACGQKPRSEALDARWL, “inactive”.
The result for GKNDLSMNIGELWASGRGVV reads 2.18 ± 0.24; that for TCCRRVLSMEQQDTLVYWQY, -0.585 ± 1.7.
The entry for CHYFMNTLIV is “inactive”.
RLFPYQFM showed an amyloid nucleation score of -0.286 ± 0.63.
The result for DYPCRRGDLRRG reads 0.642 ± 0.95; that for AIVELLSWSQVTCALWGSIT, 0.344 ± 0.69.
The figure for HCFPCLVVIV is 0.121 ± 0.36; for YVAFEKTL it is “inactive”.
The substance NTRAPFLKHLNYFAYTTFII yielded an amyloid nucleation score of 0.123 ± 0.22.
Regarding LLLRSRSTRF, the amyloid nucleation score was -0.233 ± 0.3.
The figure for MGTDRMCHS is 0.328 ± 0.97; for LSMGAHSGGPLQSY it is -0.205 ± 1.1; for FVEVVRTLEQI it is -0.485 ± 1.
The result for WVFVNYWSGSKNQ reads 2.96 ± 0.14.
The figure for TSSCLVYL is -0.413 ± 0.55.
WPWHEHEQKWDKLCMLSWKR: the amyloid nucleation score result was “inactive”.
The result for KIEFIGDVRFA reads 0.92 ± 0.67; that for SIRTLQDNSTSSENFKVESV, 0.273 ± 0.64; that for ILVYERTYFRNLQWIIRWFS, -0.356 ± 0.22.
The figure for LAFTNRVVVWESWSAMAVRW is -0.173 ± 0.66; for IYKVLYYEVNKFWTTIVSSR it is -0.651 ± 0.29; for AYLVPGQYVSPSFRFLTKNE it is 0.215 ± 0.68.
The result for HNFKCHLKSCKVSNFN reads -1.02 ± 2.4; that for SHFFLIT, -0.48 ± 1.5; that for MNVFVSRNYVYLKYEFRSLA, 6.642 ± 0.051.
Substance RMSLLYLSSVKLFNWHAALG had an amyloid nucleation score of -0.465 ± 0.6.
The figure for ERVSETRQSLTWNHNERIWL is 1.55 ± 0.12; for HSPCMPLTCSQTWHSLDLPF it is -0.304 ± 0.55; for VLTLSTKLCLHRGGWTTKPT it is 4.2 ± 0.068.
The figure for CCVGRALCHNVVS is 0.594 ± 0.55; for GYISRHNAGSSAPVNVVRLR it is -0.223 ± 0.65.
The figure for LWDIFFRSLSVLAYNIKMFS is -0.552 ± 1.
Take IIRRGSRSFYIFMVTFKRRN: the amyloid nucleation score was 0.996 ± 0.52.
PNDSYNGL returned an amyloid nucleation score of -0.421 ± 0.46.
YGHCFDFGVRTVLFNGFSLI had an amyloid nucleation score of 1.29 ± 0.84.
SSVPHFAGSVVASDPPLYRL came in with an amyloid nucleation score of 0.949 ± 0.81.
In the case of PAGTGINLMICVARGGRTSG, the amyloid nucleation score was determined as 5.24 ± 0.1.
The result for ANRYRVLKE reads 3.88 ± 0.095.
The result for SSDKLCAYFVREIWTQGAGW reads 0.507 ± 0.54; that for GIVGSG, 2.29 ± 0.29; that for TSSTRILISTTELVRNYCYC, 1.37 ± 0.26.
The figure for TCHLIL is -0.872 ± 0.34; for NWHVGIIGWRCMGHTQKYVN it is 0.038 ± 0.22.
Consider WSKDNTIVEISYGTSGLVQL, for which the amyloid nucleation score amounted to 0.39 ± 0.26.
The result for DRATGISEAVEWHGRWVGKN reads -0.534 ± 0.83; that for ELLMERMRQLVFPPIIYRLN, 0.44 ± 0.62; that for VKLGDNNTRQLTYSGS, 1.71 ± 0.73.
The figure for IISVMTIARGNPVCTHIKYG is 0.169 ± 0.29.
The result for IIGSIGYVKVSCDQAVRFQL reads 5.01 ± 0.076; that for GKNFSTMAWP, -1.25 ± 2.7; that for HRRSLRVGLSDIHLLAACAE, -0.897 ± 1.6.
The substance FLGLLLCCLVRAPLPFGMRA yielded an amyloid nucleation score of -0.459 ± 0.56.
The figure for MNTWDMSLIPWSLARWVNTA is 0.063 ± 0.4.
The result for LLGRLVQCCRPWY reads -1.17 ± 2.7; that for NGLSRYKKDLGLVDWYFGQM, 0.744 ± 0.37.
The figure for YWGPKDAMGMSFIVSWDGPP is 0.367 ± 0.31.
With PLCPSGRNYVS, the amyloid nucleation score was -0.159 ± 0.25.
The figure for NMIESIVDISTPFIHGMIND is 0.295 ± 1.1; for RAIIGFSLSQRGYLPNTDLR it is 3.1 ± 0.095.
Consider RARLNRFVICVSLDMLVLWM, for which the amyloid nucleation score was -0.709 ± 0.45.
The figure for HLGAYYTGI is 0.984 ± 0.36.
Turning to GIETRMDWEV, the amyloid nucleation score was found to be 1.67 ± 0.52.
The figure for SMSSSWG is 0.19 ± 0.56.
In turn, CVTLCSDVSYSTYNWLPFIR came in with an amyloid nucleation score of 0.834 ± 0.44.
In the case of TLLPARGGKKAR, the amyloid nucleation score is 0.256 ± 0.49.
The result for VKVRFIRIYYFFCNSKDFRG reads -0.308 ± 0.31; that for CCRGCPERLLSWGGSPRATE, -0.334 ± 0.39.
LILSYAN had an amyloid nucleation score of 1.33 ± 0.66.
The result for VLGLGSC reads -0.15 ± 0.54; that for SVWLANCYGKYMGVVCYSKV, 0.537 ± 0.32; that for MPLLYSVSHCWFKPAFGWAW, 0.442 ± 0.69.
The result for GDLGCVYSLFRSLFSSFTRS reads 0.111 ± 0.35.
The figure for TGYLERRVGYYRVRFRCERS is 0.022 ± 0.6.
Turning to HSLLVMQDVCPE, the amyloid nucleation score worked out at 0.69 ± 0.56.
The figure for YGGISMLLCRSVWRFNRQYI is 0.547 ± 0.76; for HCTSQ it is 1.71 ± 0.13.
The result for GGIYSLSMNIVWATGCL reads -0.361 ± 0.93; that for EYLFLRRM, 2.92 ± 0.089; that for VLIFWWIMKGRFWVMCSAGY, 0.621 ± 0.89.
The result for GSSFGFDYFDAHPMYLVTSY reads 1.37 ± 0.48; that for FSCFLMEISKGRGH, 4.18 ± 0.11; that for YFCFFSRMFTVEF, 2.12 ± 0.64.
With WKQMVLGVWCESLELL, the amyloid nucleation score is -0.548 ± 0.56.
Take GSWIFCVFHLNMDFCSMGST: the amyloid nucleation score is -0.023 ± 0.6.
The substance TRVASQDARTDP had an amyloid nucleation score of -0.034 ± 0.49.
CDWYDQMREVGESYVALSYN registered an amyloid nucleation score of -0.386 ± 0.48.
The result for GELCMLSVW reads 0.729 ± 0.79; that for NSFKCFNDRNEVALMITHRE, -0.526 ± 0.77; that for AVSVWYYSRVRGRG, 0.025 ± 0.46.
The result for VCNIPNFCQKQCLSFTTIRY reads 2 ± 0.12; that for PIMWCWHAVMSLS, “inactive”.
In turn, KRRYYCFGAMVY gave an amyloid nucleation score of 0.203 ± 0.38.
The result for IWDHCFGPVKCCNIWGKEVG reads 5.1 ± 0.079; that for PVKGGVMGF, -0.35 ± 1.4; that for GSTRVRTCGRKLMCALS, 0.835 ± 0.24.
The figure for EFYVLISV is -1.23 ± 1.9.
Turning to DTNIHRVEFLISFFGRELSQ, the amyloid nucleation score entry was “inactive”.
SWPSPGVRQEQNCWCTRTFV: the amyloid nucleation score result was “inactive”.
The result for FISSNDIYGGATGWDSSDVT reads -0.743 ± 0.36.
The figure for LVVLSTVDA is -0.279 ± 0.67.
The figure for DLKFHLLIWVCRIGSDKNVK is 0.071 ± 1.2; for LYKKICKALSYIMDLTRVLP it is -1.54 ± 2.1.
The substance CLFSRELTLSPLWDLVK came in with an amyloid nucleation score of 1.79 ± 0.15.
The result for IFMSRWG reads 2.78 ± 0.14; that for QTNKLEGVANSGKIITNKSG, 0.021 ± 0.97; that for ILADIVDATWNFKSSISFLG, 1.74 ± 0.16.
The figure for ALFCSTIRNQIGFIRHPESF is 0.026 ± 0.58; for VGLLKAAEDGVLRIGVRRSW it is 0.631 ± 0.8.
SLGCYCRVKIVWVCILGYTA displayed an amyloid nucleation score of 0.526 ± 0.27.
The result for LSVICMFTY reads 4.74 ± 0.052.
The figure for IFNCVVLFSNTFMGYRFPFH is 6.273 ± 0.045; for YSNLSCSQTDVRSLR it is 0.494 ± 0.49.
The substance HMNSVVMPRWPTLNGELGSR gave an amyloid nucleation score of -0.179 ± 0.4.
The result for KRALQDRMLLEP reads -0.286 ± 1.
The result for HSFIYYWC reads 7.49 ± 0.051; that for YHANICSKFSSLYSNL, 1.01 ± 0.93.
The figure for FAGFTGGVLYGVWRLLGSCR is -0.022 ± 0.59; for CLFRCVVEPLVIGYTKCAS it is “inactive”; for IGSMNCRLLVTWKMVWLVPH it is -0.187 ± 0.5.
In the case of VPSLSPFGRKMFHIRSL, the amyloid nucleation score entry was “inactive”.
